In publication PMC4390882 (Life, 2015) one finds Km, kcat and kcat/Km data, which are given here for three molecules.

Changes are numbered by the printed parent chain. Numbers in names are those of the source.

For data set [1], the target named is T1, MtACK (Methanosarcina thermophila acetate kinase) (Methanosarcina thermophila, UniProt P38502, G239S).
T1 construct: gene ackA; full-length, N-terminal His6 tag (pET15b, pETack), expressed in E. coli BL21(DE3), HisTrap purified; tag removal not mentioned
T1 sequence (P38502 whole entry G239S): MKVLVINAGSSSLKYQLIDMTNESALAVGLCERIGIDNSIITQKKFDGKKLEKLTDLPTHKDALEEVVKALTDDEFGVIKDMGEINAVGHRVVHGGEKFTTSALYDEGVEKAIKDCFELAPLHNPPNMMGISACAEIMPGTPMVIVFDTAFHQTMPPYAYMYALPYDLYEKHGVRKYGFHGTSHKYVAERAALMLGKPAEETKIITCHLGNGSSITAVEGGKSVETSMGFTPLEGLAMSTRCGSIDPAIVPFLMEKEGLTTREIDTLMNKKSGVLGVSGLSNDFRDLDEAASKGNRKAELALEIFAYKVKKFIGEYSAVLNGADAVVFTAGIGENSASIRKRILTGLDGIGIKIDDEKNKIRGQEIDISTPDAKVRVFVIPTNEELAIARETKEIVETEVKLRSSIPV
Nature of the data set: hydroxamate assay, A540. The settings on record: saturating acetate when possible (max 1 M), MgCl2, 50 mM Tris pH 7.5, 300 mM hydroxylamine, 37 °C. The class given is biochemical.

Data set [2] deals with T2, MtACK (Methanosarcina thermophila acetate kinase) (Methanosarcina thermophila, UniProt P38502, N211T).
T2 construct: gene ackA; full-length, N-terminal His6 tag (pET15b, pETack), expressed in E. coli BL21(DE3), HisTrap purified; tag removal not mentioned
T2 sequence (P38502 whole entry N211T): as the sequence (P38502 whole entry G239S) above, with N211T, S239G counted along it
Nature of the data set: hydroxamate assay, A540. The data set is classed as biochemical. The settings on record: saturating acetate when possible (max 1 M), MgCl2, 50 mM Tris pH 7.5, 300 mM hydroxylamine, 37 °C.

The target of data set [3] is T3, MtACK (Methanosarcina thermophila acetate kinase) (Methanosarcina thermophila, UniProt P38502, N211A).
T3 construct: gene ackA; full-length, N-terminal His6 tag (pET15b, pETack), expressed in E. coli BL21(DE3), HisTrap purified; tag removal not mentioned
T3 sequence (P38502 whole entry N211A): as the sequence (P38502 whole entry G239S) above, with N211A, S239G counted along it
Nature of the data set: hydroxamate assay, A540. The class given is biochemical. Particulars: saturating acetate when possible (max 1 M), MgCl2, 50 mM Tris pH 7.5, 300 mM hydroxylamine, 37 °C.

Data set [4] addresses T4, MtACK (Methanosarcina thermophila acetate kinase) (Methanosarcina thermophila, UniProt P38502, G331A).
T4 construct: gene ackA; full-length, N-terminal His6 tag (pET15b, pETack), expressed in E. coli BL21(DE3), HisTrap purified; tag removal not mentioned
As to the kind of experiment: hydroxamate assay, A540. The class given is biochemical. The settings on record: saturating acetate when possible (max 1 M), MgCl2, 50 mM Tris pH 7.5, 300 mM hydroxylamine, 37 °C.

In data set [5] the target is T5, MtACK (Methanosarcina thermophila acetate kinase) (Methanosarcina thermophila, UniProt P38502, G239A).
T5 construct: gene ackA; full-length, N-terminal His6 tag (pET15b, pETack), expressed in E. coli BL21(DE3), HisTrap purified; tag removal not mentioned
T5 sequence (P38502 whole entry G239A): as the sequence (P38502 whole entry G239S) above, with S239A counted along it
As to the kind of experiment: hydroxamate assay, A540. The data set is classed as biochemical. The settings on record: saturating acetate when possible (max 1 M), MgCl2, 50 mM Tris pH 7.5, 300 mM hydroxylamine, 37 °C.

Data set [6] has as its target T6, MtACK (Methanosarcina thermophila acetate kinase) (Methanosarcina thermophila, UniProt P38502, G331Q).
T6 construct: gene ackA; full-length, N-terminal His6 tag (pET15b, pETack), expressed in E. coli BL21(DE3), HisTrap purified; tag removal not mentioned
Nature of the data set: hydroxamate assay, A540. The class given is biochemical. The settings on record: acetate not saturating (max 1 M), MgCl2, 50 mM Tris pH 7.5, 300 mM hydroxylamine, 37 °C.

In data set [7] the target is T7, MtACK (Methanosarcina thermophila acetate kinase) (Methanosarcina thermophila, UniProt P38502).
T7 construct: gene ackA; full-length, N-terminal His6 tag (pET15b, pETack), expressed in E. coli BL21(DE3), HisTrap purified; tag removal not mentioned
T7 sequence (P38502 whole entry): as the sequence (P38502 whole entry G239S) above, with S239G counted along it
Nature of the data set: hydroxamate assay, A540. The data set is classed as biochemical. The settings on record: saturating acetate when possible (max 1 M), MgCl2, 50 mM Tris pH 7.5, 300 mM hydroxylamine, 37 °C.

Data set [8] addresses T8, MtACK (Methanosarcina thermophila acetate kinase) (Methanosarcina thermophila, UniProt P38502, N211S).
T8 construct: gene ackA; full-length, N-terminal His6 tag (pET15b, pETack), expressed in E. coli BL21(DE3), HisTrap purified; tag removal not mentioned
As to the kind of experiment: hydroxamate assay, A540. The class given is biochemical. Particulars: saturating acetate when possible (max 1 M), MgCl2, 50 mM Tris pH 7.5, 300 mM hydroxylamine, 37 °C.

Substrate in data set [9]: Nc1ccn([C@@H]2O[C@H](COP(=O)(O)OP(=O)(O)OP(=O)(O)O)[C@@H](O)[C@H]2O)c(=O)n1
As to the kind of experiment: hydroxamate assay, A540. The class given is biochemical, Methanosarcina thermophila. The settings on record: saturating acetate when possible (max 1 M), MgCl2, 50 mM Tris pH 7.5, 300 mM hydroxylamine, 37 °C.

Substrate in data set [10]: Nc1nc2c(ncn2[C@@H]2O[C@H](COP(=O)(O)OP(=O)(O)OP(=O)(O)O)[C@@H](O)[C@H]2O)c(=O)[nH]1
Nature of the data set: hydroxamate assay, A540. The data set is classed as biochemical, Methanosarcina thermophila. The settings on record: saturating acetate when possible (max 1 M), MgCl2, 50 mM Tris pH 7.5, 300 mM hydroxylamine, 37 °C.

Substrate in data set [11]: CC(=O)O
As to the kind of experiment: purified protein. The settings on record: ATP constant at optimal concentration, MgCl2, 50 mM Tris pH 7.5, 300 mM hydroxylamine, 37 °C.

Substrate in data set [12]: Cc1cn([C@H]2C[C@H](O)[C@@H](COP(=O)(O)OP(=O)(O)OP(=O)(O)O)O2)c(=O)[nH]c1=O
Nature of the data set: hydroxamate assay, A540. The data set is classed as biochemical, Methanosarcina thermophila. Particulars: saturating acetate when possible (max 1 M), MgCl2, 50 mM Tris pH 7.5, 300 mM hydroxylamine, 37 °C.

Substrate in data set [13]: O=P(O)(O)OP(=O)(O)OP(=O)(O)OC[C@H]1O[C@@H](n2cnc3c(O)ncnc32)[C@H](O)[C@@H]1O
As to the kind of experiment: hydroxamate assay, A540. The class given is biochemical, Methanosarcina thermophila. The settings on record: saturating acetate when possible (max 1 M), MgCl2, 50 mM Tris pH 7.5, 300 mM hydroxylamine, 37 °C.

Substrate in data set [14]: O=c1ccn([C@@H]2O[C@H](COP(=O)(O)OP(=O)(O)OP(=O)(O)O)[C@@H](O)[C@H]2O)c(=O)[nH]1
Nature of the data set: hydroxamate assay, A540. The data set is classed as biochemical, Methanosarcina thermophila. The settings on record: saturating acetate when possible (max 1 M), MgCl2, 50 mM Tris pH 7.5, 300 mM hydroxylamine, 37 °C.

T8 sequence (P38502 whole entry N211S): as the sequence (P38502 whole entry G239S) above, with N211S, S239G counted along it
T6 sequence (P38502 whole entry G331Q): as the sequence (P38502 whole entry G239S) above, with S239G, G331Q counted along it

On to `Nc1ncnc2c1ncn2[C@@H]1O[C@H](COP(=O)(O)OP(=O)(O)OP(=O)(O)O)[C@@H](O)[C@H]1O` [ATP], for which the Km in data set [1] was found to be 1.8 ± 0.1 mM; in data set [2], 7.1 ± 0.3 mM; in data set [3], 5.9 ± 0.5 mM; in data set [4] it was 10.2 ± 0.4 mM; in data set [5], 1.7 ± 0.1 mM; in [6] it was 18.4 ± 0.6 mM. Further, the Km in data set [7] was 4 ± 0.3 mM; in [8], 6.8 ± 0.6 mM.

B1: MtACK (Methanosarcina thermophila acetate kinase) (Methanosarcina thermophila; G331A) (protein)
chain: MKVLVINAGSSSLKYQLIDMTNESALAVGLCERIGIDNSIITQKKFDGKKLEKLTDLPTHKDALEEVVKALTDDEFGVIKDMGEINAVGHRVVHGGEKFTTSALYDEGVEKAIKDCFELAPLHNPPNMMGISACAEIMPGTPMVIVFDTAFHQTMPPYAYMYALPYDLYEKHGVRKYGFHGTSHKYVAERAALMLGKPAEETKIITCHLGNGSSITAVEGGKSVETSMGFTPLEGLAMGTRCGSIDPAIVPFLMEKEGLTTREIDTLMNKKSGVLGVSGLSNDFRDLDEAASKGNRKAELALEIFAYKVKKFIGEYSAVLNGADAVVFTAAIGENSASIRKRILTGLDGIGIKIDDEKNKIRGQEIDISTPDAKVRVFVIPTNEELAIARETKEIVETEVKLRSSIPV
notes: full-length, N-terminal His6 tag (pET15b, pETack), expressed in E. coli BL21(DE3), HisTrap purified; tag removal not mentioned
For B1, in data set [9], the Km is listed as 15.7 ± 1.6 mM, the kcat is 17 ± 0.8 s⁻¹ and the kcat/Km turned out to be 1100 ± 70 M⁻¹ s⁻¹. Further, in [10], the Km is listed as 5.3 ± 0.2 mM, the kcat turned out to be 67 ± 1.0 s⁻¹ and the kcat/Km stood at 12600 ± 400 M⁻¹ s⁻¹.

B2: MtACK (Methanosarcina thermophila acetate kinase) (Methanosarcina thermophila) (protein)
chain: B1 chain with A331G
notes: as for B1
Take B2: the Km in data set [11] was found to be 14.3 ± 0.5 mM; in data set [12], 2.7 ± 0.1 mM; in data set [9] it was 3.2 ± 0.4 mM; in data set [10] it was 7.2 ± 0.9 mM; in data set [13] it was 4.7 ± 0.2 mM; in data set [14], 2.7 ± 0.3 mM. The kcat in [12] came out at 540 ± 9 s⁻¹; in data set [9] it was 460 ± 28 s⁻¹; in data set [10], 571 ± 22 s⁻¹; in [13], 742 ± 10 s⁻¹; in data set [14], 415 ± 19 s⁻¹. Also, the kcat/Km was determined as 202000 ± 2000 M⁻¹ s⁻¹ in data set [12]; 148000 ± 13000 M⁻¹ s⁻¹ in data set [9]; 80000 ± 7000 M⁻¹ s⁻¹ in data set [10]; 158000 ± 5000 M⁻¹ s⁻¹ in data set [13]; 152000 ± 7000 M⁻¹ s⁻¹ in [14].

The Km is the concentration of substrate that gives half-maximal velocity. What is called kcat is the maximal rate divided by the concentration of active sites. The kcat/Km is the turnover number divided by the Michaelis constant.
